Experimental data published in patent publication US20220290147A1, “SYSTEM FOR REGULATING GENE EXPRESSION” (Baylor College of Medicine, priority 2019, published 2022).
Positions count from the first letter of the chain named.

B1: Y209: SEQ ID NO: 8; polyA switch construct (nucleic acid)
DNA: TCAGATCGCCTGGAGACGCCATCCACGCTGTTTTGACCTCCATAGAAGACACCGGGACCGATCCAGCCTCCCCTCGAAGCTGATCCTGAGAACTTCAGGGTGAGTCTATGGGACCCTTGATGTTTTCTTTCCCCTTCTTTTCTATGGTTAAGTTCATGTCATAGGAAGGGGAGAAGTAACAGGGTACACATATTGACCAAATCAGGGTAATTTTGCATTTGTAATTTTAAAAAATGCTTTCTTCTTTTAATATACTTTTTTGTTTATCTTATTTCTAATACTTTCCCTAATCTCTTTCTTTCAGGGCAATAATGATACAATGTATCATGCCTCTTTGCACCATTCTAAAGAATAACAGTGATAATTTCTGGGTTAAGGCAATAGCAATATTTCTGCATATAAATATTTCTGCATATAAATTGTAACTGATGTAAGAGGTTTCATATTGCTAATAGCAGCTACAATCCAGCTACCATTCTGCTTTTATTTTATGGTTGGGATAAGGCTGGATTATTCTGAGTCCAAGCTAGGCCCTTTTGCTAATCATGTTCATACCTCTTATCTTCCTCCCACAGCTCCTGGGCAACGTGCTGGTCTGTGTGCTGGCCCATCACTTTGGCAAAGAATTGGCTAGCCACACACACAAATCTGGGGAGGTGAAGAATACGACCACCTGCGTTTTATACTTCCGCGAGATCTGGGGAGGTGAAGAATACGACCACCTAATAAGATTACCGAAAGGCAATCTTATTAAAACATACCAGATCTTGCGAGGGTGTTTGTGGCAAAACATACCAGATCGAATTCGATCTGGGGAGGTGAAGAATACGACCACCTGCTACAAGTACCTAAATAAAGTATAAAGTGCAAAACATACCAGATCTGTGTGTTGGTTTTTTGTGTGTTAACGGGGGAGGGGGAGGAAAGGGGGAGGGGGAGGAAAGGGGGAGGGGGAGGAAAGGGGGAGGGGGAGCGGCCGCCAACAACAACAACAACAACAACAACAACAACAACAACAACATAACAGTGTTCACTAGCAACCTCAAACAGACACCATG
B2: Y211: SEQ ID NO: 9; polyA switch construct (nucleic acid)
DNA: B1 DNA with G691A, C771T
B3: Y196CAA-4MAZ: SEQ ID NO: 6; Y-shape polyA switch construct with 4MAZ (nucleic acid)
DNA: TCAGATCGCCTGGAGACGCCATCCACGCTGTTTTGACCTCCATAGAAGACACCGGGACCGATCCAGCCTCCCCTCGAAGCTGATCCTGAGAACTTCAGGGTGAGTCTATGGGACCCTTGATGTTTTCTTTCCCCTTCTTTTCTATGGTTAAGTTCATGTCATAGGAAGGGGAGAAGTAACAGGGTACACATATTGACCAAATCAGGGTAATTTTGCATTTGTAATTTTAAAAAATGCTTTCTTCTTTTAATATACTTTTTTGTTTATCTTATTTCTAATACTTTCCCTAATCTCTTTCTTTCAGGGCAATAATGATACAATGTATCATGCCTCTTTGCACCATTCTAAAGAATAACAGTGATAATTTCTGGGTTAAGGCAATAGCAATATTTCTGCATATAAATATTTCTGCATATAAATTGTAACTGATGTAAGAGGTTTCATATTGCTAATAGCAGCTACAATCCAGCTACCATTCTGCTTTTATTTTATGGTTGGGATAAGGCTGGATTATTCTGAGTCCAAGCTAGGCCCTTTTGCTAATCATGTTCATACCTCTTATCTTCCTCCCACAGCTCCTGGGCAACGTGCTGGTCTGTGTGCTGGCCCATCACTTTGGCAAAGAATTGGCTAGCCACACACACAAATCTGGGGAGGTGAAGAATACGACCACCTGCGTTTTATACTTCCACGAGATCTGGGGAGGTGAAGAATACGACCACCTAATAAGATTACCGAAAGGCAATCTTATTAAAACATACCAGATCTTGTGAGGGTGTTTGTGGCAAAACATACCAGATCGAATTCGATCTGGGGAGGTGAAGAATACGACCACCTGCTACAAGTACCTAATAAAGTATAAAGTGCAAAACATACCAGATCTGTGTGTTGGTTTTTTGTGTGTTAACGGGGGAGGGGGAGGAAAGGGGGAGGGGGAGGAAAGGGGGAGGGGGAGGAAAGGGGGAGGGGGAGCGGCCGCCAACAACAACAACAACAACAACAACAACAACAACAACAACATAACAGTGTTCACTAGCAACCTCAAACAGACACCATG
B4: Y208: SEQ ID NO: 7; polyA switch construct (nucleic acid)
DNA: TGGAGACGCCATCCACGCTGTTTTGACCTCCATAGAAGACACCGGGACCGATCCAGCCTCCCCTCGAAGCTGATCCTGAGAACTTCAGGGTGAGTCTATGGGACCCTTGATGTTTTCTTTCCCCTTCTTTTCTATGGTTAAGTTCATGTCATAGGAAGGGGAGAAGTAACAGGGTACACATATTGACCAAATCAGGGTAATTTTGCATTTGTAATTTTAAAAAATGCTTTCTTCTTTTAATATACTTTTTTGTTTATCTTATTTCTAATACTTTCCCTAATCTCTTTCTTTCAGGGCAATAATGATACAATGTATCATGCCTCTTTGCACCATTCTAAAGAATAACAGTGATAATTTCTGGGTTAAGGCAATAGCAATATTTCTGCATATAAATATTTCTGCATATAAATTGTAACTGATGTAAGAGGTTTCATATTGCTAATAGCAGCTACAATCCAGCTACCATTCTGCTTTTATTTTATGGTTGGGATAAGGCTGGATTATTCTGAGTCCAAGCTAGGCCCTTTTGCTAATCATGTTCATACCTCTTATCTTCCTCCCACAGCTCCTGGGCAACGTGCTGGTCTGTGTGCTGGCCCATCACTTTGGCAAAGAATTGGCTAGCCACACACACAAATCTGGGGAGGTGAAGAATACGACCACCTGCGTTTTATACTTCCGCGAGATCTGGGGAGGTGAAGAATACGACCACCTAATAAGATTACCGAAAGGCAATCTTATTAAAACATACCAGATCTTGCGAGGGTGTTTGTGGCAAAACATACCAGATCGAATTCGATCTGGGGAGGTGAAGAATACGACCACCTGCTACAAGTACCTAATAAAGTATAAAGTGCAAAACATACCAGATCTGTGTGTTGGTTTTTTGTGTGTTAACGGGGGAGGGGGAGGAAAGGGGGAGGGGGAGGAAAGGGGGAGGGGGAGGAAAGGGGGAGGGGGAGCGGCCGCCAACAACAACAACAACAACAACAACAACAACAACAACAACATAACAGTGTTCACTAGCAACCTCAAACAGACACCATG

Key:
293T cells = assay: Luciferase assay: tetracycline-induced transgene expression (induction in fold) from polyA aptamer constructs; type: cell-based, human
Experimental: Cells were seeded in 96-well plates at a density of 25000-30000 cells/well. After 24 hours of incubation, each well was transfected with 50 ng of DNA vectors and were incubated with culture medium containing none or various concentration of tetracycline for an additional 18 hours. Luciferase activity was measured in relative light units (RLU) with a Polarstar Omega plate reader (BMG Labtech, USA). To make 36 mL of assay buffer, 144 μL 1M DTT, 108 μL M ATP, 252 μL 0.1M luciferin and 360 μl 0.05M CoA were added to 35 mL of basic buffer (25 mM Tricine, 0.5 mM EDTA-Na2, 0.54 mM Na-triphosphate, 16.3 mM MgSO4.7H2O, and 0.8% Triton X-100). After the cell medium was removed, 40 μL of assay buffer was added to each well, and luciferase activity was read twice with the Polarstar Omega plate reader. Induction in fold is calculated as the ratio of transgene expression in the presence vs absence of tetracycline.

alternative splicing = assay: RT-PCR of tetracycline-induced alternative splicing; type: cell-based; conditions: presence of Tc, compared to Y196CAA-2MAZ
Experimental: Cells transfected with the respective constructs were grown 18 hours at 37° C. in medium in the absence or presence of tetracycline. Total RNA was isolated according to the protocol supplied with RiboPure™ RNA Purification Kit (Ambion, Austin, Tex.). For RT-PCR, RT was performed using SuperScript III (invitrogen, Carlsbad, Calif.) according to manufacturer's protocol and PCR was performed using the primers targeting the beginning of the transcript and reporter gene.

Row | Molecule | effect on induction of inserting CAA repeats in the 5′UTR of the named construct (293T cells) | Tc-induced alternative splicing (alternative splicing)
1 | B1 | higher induction | –
2 | B2 | higher induction | –
3 | B3 | – | far more pronounced
4 | B4 | higher induction | –
